The text below walks through data of paper PMC11551746, “The Swi5–Sfr1 complex regulates Dmc1- and Rad51-driven DNA strand exchange proceeding through two distinct three-stranded intermediates by different mechanisms” (Nucleic Acids Research, 2024).

The target of series [1] is T1, Rad51 (Schizosaccharomyces pombe, UniProt P36601).
T1 construct: purified as described previously; filament on ssDNA
T1 sequence (P36601 1-365): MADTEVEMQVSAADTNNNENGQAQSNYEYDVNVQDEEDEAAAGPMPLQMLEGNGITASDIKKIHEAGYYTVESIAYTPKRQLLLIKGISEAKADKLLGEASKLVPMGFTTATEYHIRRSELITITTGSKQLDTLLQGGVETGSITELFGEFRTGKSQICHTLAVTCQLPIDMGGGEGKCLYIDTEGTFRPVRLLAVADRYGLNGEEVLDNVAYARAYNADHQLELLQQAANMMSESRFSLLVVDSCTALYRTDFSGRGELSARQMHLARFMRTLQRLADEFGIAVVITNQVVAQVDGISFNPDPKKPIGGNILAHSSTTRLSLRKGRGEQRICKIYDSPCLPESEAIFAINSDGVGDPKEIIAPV
Briefly: fluorescence anisotropy of Rad51-ssDNA filament. The class given is binding. As to conditions: 1 mM AMP-PNP, 3 mM MgCl2, 100 mM KCl, pH 7.5, 25 °C, TAMRA-oligo dT; compared with ATP. For orientation: In fluorescence polarisation assays a small probe gives low polarisation when free and higher when bound to something large.

Series [2] concerns the target T2, Dmc1 (Schizosaccharomyces pombe, UniProt O42634).
T2 construct: purified as described previously; filament on ssDNA
T2 sequence (O42634 1-332): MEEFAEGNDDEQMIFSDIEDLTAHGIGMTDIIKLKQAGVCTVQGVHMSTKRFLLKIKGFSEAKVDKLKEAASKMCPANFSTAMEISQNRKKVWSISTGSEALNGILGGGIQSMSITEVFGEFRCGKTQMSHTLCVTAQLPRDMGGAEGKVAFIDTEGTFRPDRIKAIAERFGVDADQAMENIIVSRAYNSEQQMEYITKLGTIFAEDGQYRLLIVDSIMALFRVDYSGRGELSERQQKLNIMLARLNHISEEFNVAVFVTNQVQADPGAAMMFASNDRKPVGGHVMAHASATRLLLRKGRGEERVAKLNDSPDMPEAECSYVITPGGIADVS
Briefly: fluorescence anisotropy of Dmc1-ssDNA filament; FRET strand exchange. The class given is binding. Conditions: 1 mM AMP-PNP, 3 mM MgCl2, 100 mM KCl, pH 7.5, 25 °C, TAMRA-oligo dT (anisotropy); compared with ATP.

Series [3] has as its target T2, Dmc1. Briefly: FRET real-time DNA strand pairing and displacement. Conditions: 1 mM ATP, 5 mM MgCl2, 25 mM KCl, pH 7.5, 30 °C, 83-mer ssDNA, 40-83 bp dsDNA; compared with ADP. Type of series: biochemical.
For series [4], the target named is T3, Dmc1 (Schizosaccharomyces pombe? (fission …, UniProt O42634 1-332)).
T3 sequence: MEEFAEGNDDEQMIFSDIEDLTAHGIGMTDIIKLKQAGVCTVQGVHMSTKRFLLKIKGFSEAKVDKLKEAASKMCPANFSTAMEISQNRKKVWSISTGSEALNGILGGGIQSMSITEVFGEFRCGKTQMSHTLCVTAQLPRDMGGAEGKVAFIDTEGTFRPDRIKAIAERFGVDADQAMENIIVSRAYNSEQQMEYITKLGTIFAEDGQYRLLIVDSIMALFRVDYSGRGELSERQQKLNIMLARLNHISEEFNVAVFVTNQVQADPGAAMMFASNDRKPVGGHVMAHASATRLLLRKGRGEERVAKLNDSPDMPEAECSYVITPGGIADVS
Briefly: fluorescence anisotropy; 1 mM AMP-PNP, Mg2+; Hill fit; 30 mM HEPES-KOH pH 7.5, 100 mM KCl, 3 mM MgCl2 or CaCl2, 1 mM DTT, 5% glycerol, 1 mM adenine nucleotide, 3 uM (nt) TAMRA-dT72, 25 C. Conditions: protein: recombinant; label: 5' TAMRA; single-stranded.

The target of series [5] is T3, Dmc1. Briefly: fluorescence anisotropy; ssDNA preincubated with Swi5-Sfr1 (0.1 uM or more), ATP?, Mg2+; Hill fit; 30 mM HEPES-KOH pH 7.5, 100 mM KCl, 3 mM MgCl2 or CaCl2, 1 mM DTT, 5% glycerol, 1 mM adenine nucleotide, 3 uM (nt) TAMRA-dT72, 25 C. Conditions: protein: recombinant; label: 5' TAMRA; single-stranded.
The target of series [6] is T3, Dmc1. Nature of the series: fluorescence anisotropy; 3 mM Ca2+ in place of Mg2+, ATP?; Hill fit; 30 mM HEPES-KOH pH 7.5, 100 mM KCl, 3 mM MgCl2 or CaCl2, 1 mM DTT, 5% glycerol, 1 mM adenine nucleotide, 3 uM (nt) TAMRA-dT72, 25 C. Conditions: protein: recombinant; label: 5' TAMRA; single-stranded.
Series [7] concerns the target T3, Dmc1. Nature of the series: fluorescence anisotropy; 1 mM ADP, Mg2+; Hill fit; 30 mM HEPES-KOH pH 7.5, 100 mM KCl, 3 mM MgCl2 or CaCl2, 1 mM DTT, 5% glycerol, 1 mM adenine nucleotide, 3 uM (nt) TAMRA-dT72, 25 C. Conditions: protein: recombinant; label: 5' TAMRA; single-stranded.
Series [8] deals with T4, Rad51 (Schizosaccharomyces pombe? (fission …, UniProt P36601 1-365)).
T4 sequence: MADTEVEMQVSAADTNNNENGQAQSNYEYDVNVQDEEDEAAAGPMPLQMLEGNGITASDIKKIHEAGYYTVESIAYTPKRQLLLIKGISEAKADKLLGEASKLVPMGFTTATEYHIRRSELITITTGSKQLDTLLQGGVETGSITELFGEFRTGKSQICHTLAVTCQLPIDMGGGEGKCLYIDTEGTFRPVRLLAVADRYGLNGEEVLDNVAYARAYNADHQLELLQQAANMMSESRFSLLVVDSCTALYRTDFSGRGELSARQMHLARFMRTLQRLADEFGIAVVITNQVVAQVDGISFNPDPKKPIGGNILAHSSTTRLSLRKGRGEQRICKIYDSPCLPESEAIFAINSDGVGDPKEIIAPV
Nature of the series: fluorescence anisotropy; 1 mM ATP, 3 mM Mg2+; Hill fit; 30 mM HEPES-KOH pH 7.5, 100 mM KCl, 3 mM MgCl2 or CaCl2, 1 mM DTT, 5% glycerol, 1 mM adenine nucleotide, 3 uM (nt) TAMRA-dT72, 25 C. As to conditions: protein: recombinant; label: 5' TAMRA; single-stranded.

Series [9] has as its target T3, Dmc1. Described as above. Conditions: protein: recombinant; label: 5' TAMRA; single-stranded.

For `Nc1ncnc2c1ncn2[C@@H]1O[C@H](COP(=O)(O)OP(=O)(O)NP(=O)(O)O)[C@@H](O)[C@H]1O` [AMP–PNP], the “fluorescence anisotropy of Rad51-ssDNA filament” value on Rad51 [1] is on record as “AMP–PNP significantly stabilized the Rad51 filament”. The “fluorescence anisotropy of Dmc1-ssDNA filament; FRET strand exchange” value at Dmc1 [2] is recorded as “AMP–PNP strongly stabilizes the Dmc1–ssDNA filament”.

Turning to `Nc1ncnc2c1ncn2[C@@H]1O[C@H](COP(=O)(O)OP(=O)(O)OP(=O)(O)O)[C@@H](O)[C@H]1O` [ATP], the “FRET real-time DNA strand pairing and displacement” value on Dmc1 [3] is listed as “the ATP-bound form of Dmc1 is sufficient for three-stranded intermediate formation”.

B1: [TAMRA]dT72 (ssDNA)
DNA: TTTTTTTTTTTTTTTTTTTTTTTTTTTTTTTTTTTTTTTTTTTTTTTTTTTTTTTTTTTTTTTTTTTTTTTT
Broadly, the Kd is the constant that tells how readily two partners part at equilibrium. For B1, the Kd in the series with Dmc1 [4] is 0.547 µM; with Dmc1 [5], around 0.51 µM; in the series with Dmc1 [6], 0.227 µM; in the series with Dmc1 [7] it was 1.97 µM; with Rad51 [8], 0.308 µM; with Dmc1 [9] it was 1.22 µM.
